Experiments:
hK2 = molecular target: T1, hK2 (Homo sapiens, UniProt P20151); assay: Hydrolysis of hK2 substrates by hK2; format: biochemical; conditions: hK2 1 μg/ml, 50 mM Tris, 0.1 M NaCl, pH 7.8
T1 construct: made in house
Method: (§1) Hydrolyses of particular hK2 substrates were carried out at a hK2 concentrations of 1 μg/ml in 50 mM Tris buffer, with 0.1 M NaCl, at pH 7.8. Serum hydrolysis measurements were carried out in 50% fresh human serum in 50 mM Tris buffer, with 0.1 M NaCl, at pH 7.8. The single letter amino acid code was used to designate the peptide sequences used for Table 4. The units FU are arbitrary fluorescence units. The entries “U.D.” were for measurements of less than 0.01 FU/hour.

[1] = Serum hydrolysis of hK2 substrates; format: in vitro ADME; conditions: 50% fresh human serum in 50 mM Tris, 0.1 M NaCl, pH 7.8
Method: as §1

T1 sequence (P20151 25-261): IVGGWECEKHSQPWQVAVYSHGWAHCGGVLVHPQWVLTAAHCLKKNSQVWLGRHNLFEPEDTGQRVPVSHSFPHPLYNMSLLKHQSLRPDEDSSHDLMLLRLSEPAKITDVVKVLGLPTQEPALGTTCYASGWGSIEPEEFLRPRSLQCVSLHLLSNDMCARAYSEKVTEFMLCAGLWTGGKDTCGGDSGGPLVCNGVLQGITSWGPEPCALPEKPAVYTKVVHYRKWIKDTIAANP

Substance | hK2 Hydrolysis Rate (hK2; Table 4) [FU/hr/m] | hK2 Hydrolysis Rate (hK2; Table 5) [FU/hr/m] | Serum Hydrolysis Rate ([1]; Table 4) | Serum Hydrolysis Rate ([1]; Table 5)
SEQ ID NO: 66: hK2 substrate peptide, single letter sequence P7-P′1 (GHEQKRRL; listed as Homo sapiens) | 5966.31 | 3366.5 | 0.17 FU/hr | UD (The entries “U.D.” were for measurements of less than 0.01 FU/hour)
SEQ ID NO: 67: hK2 substrate peptide, single letter sequence P7-P′1 (GGGKARRL; listed as Homo sapiens) | 4784.22 | – | 0.03 FU/hr | –
SEQ ID NO: 68: hK2 substrate peptide, single letter sequence P7-P′1 (GGGKAHRL; listed as Homo sapiens) | 4100.94 | – | 0.09 FU/hr | –
SEQ ID NO: 69: hK2 substrate peptide, single letter sequence P7-P′1 (GPAHQRRL; listed as Homo sapiens) | 4017.81 | – | 0.10 FU/hr | –
SEQ ID NO: 70: hK2 substrate peptide, single letter sequence P7-P′1 (GSKGHFRL; listed as Homo sapiens) | 3029.27 | – | 0.04 FU/hr | –
SEQ ID NO: 71: hK2 substrate peptide, single letter sequence P7-P′1 (GSKGHRRL; listed as Homo sapiens) | 2649.96 | – | UD (The entries “U.D.” were for measurements of less than 0.01 FU/hour) | –
SEQ ID NO: 72: hK2 substrate peptide, single letter sequence P7-P′1 (GKDVSRRL; listed as Homo sapiens) | 2316.12 | – | 0.08 FU/hr | –
SEQ ID NO: 73: hK2 substrate peptide, single letter sequence P7-P′1 (GSQNQRRL; listed as Homo sapiens) | 2100.48 | – | 0.05 FU/hr | –
SEQ ID NO: 74: hK2 substrate peptide, single letter sequence P7-P′1 (GSYPSRRL; listed as Homo sapiens) | 2060.21 | – | 0.09 FU/hr | –
SEQ ID NO: 75: hK2 substrate peptide, single letter sequence P7-P′1 (GSYPSSRL; listed as Homo sapiens) | 1456.18 | – | 0.06 FU/hr | –
SEQ ID NO: 76: hK2 substrate peptide, single letter sequence P7-P′1 (GHEQKGRL; listed as Homo sapiens) | 650.80 | – | 0.04 FU/hr | –
SEQ ID NO: 77: hK2 substrate peptide, single letter sequence P7-P′1 (GSNTERRL; listed as Homo sapiens) | 592.34 | – | UD (The entries “U.D.” were for measurements of less than 0.01 FU/hour) | –
SEQ ID NO: 78: hK2 substrate peptide, single letter sequence P7-P′1 (GSYEERRL; listed as Homo sapiens) | 324.75 | – | 0.04 FU/hr | –
SEQ ID NO: 79: hK2 substrate peptide, single letter sequence P7-P′1 (GKDVSGRL; listed as Homo sapiens) | 242.91 | – | 0.05 FU/hr | –
SEQ ID NO: 80: hK2 substrate peptide, single letter sequence P7-P′1 (GSNTEKRL; listed as Homo sapiens) | 255.90 | – | 0.13 FU/hr | –
SEQ ID NO: 81: hK2 substrate peptide, single letter sequence P7-P′1 (GSKGHFHL; listed as Homo sapiens) | 171.47 | – | 0.10 FU/hr | –
